{"source": "patent US5455227A", "about": "“Biologically active lipoprotein and its use” (KabiGen AB, priority 1988, dated 1995)", "experiment": "In-vitro surface properties of lipoprotein-based artificial surfactant, pulsating bubble instrument (Example 4)", "assay_type": "physicochemical", "conditions": "phospholipid 10 mg/ml, 37° C., compared with native lipoprotein", "experimental": "To this mixture surfactant lipoprotein dissolved in chloroform/methanol 1:2 (v/v) was added, giving a lipoprotein to phospholipid ratio of 1:50. The solvents were evaporated to dryness and the different surfactant preparations (phospholipids, phospholipids+lipoprotein fraction) were suspended in saline giving a phospholipid concentration of 10 or 80 mg/ml.\nThe surface properties of the lipoprotein-based artificial surfactant were analyzed with a pulsating bubble instrument (Surfactometer International, Toronto, Canada) (30). The surfactant preparations were suspended at a phospholipid concentration of 10 mg/ml, and the pressure gradient across the bubble wall was recorded at 37° C. during 50% cyclic surface compression at the rate of 40/min. Surface tension was assessed at maximal and minimal bubble sizes during the 5th cycle and after 1 and 5 min of pulsation.\nThe tracings therein represent pressure gradients across the bubble wall; max and min indicate maximal (radius 0.55 mm) and minimal (radius 0.40 mm) bubble size during pulsation at a rate of 40/min. A pressure gradient close to zero at minimal bubble size corresponds to nearly zero surface tension."}
{"substance": "lipopeptide: hexapeptide H2 N-Ile-Pro-Cys-Cys-Pro-Val-COOH conjugated with palmitoyl-chloride (thioester lipopeptide) (H-IPCCPV-OH; also: palmitoyl thioester, Cys not given here)", "values": [{"measurement": "performance in the procedure of Example 4 (surface properties)", "value": "performs similarly as the native lipoprotein"}]}
